According to article PMC10916747, “Safety, biodistribution and radiation dosimetry of the Arg-Gly-Asp peptide ^99mTc-maraciclatide in healthy volunteers” (Nuclear Medicine Communications, 2024):
Numbered stars: 1 amine (or outer) side, 2 acyl side, 3 side chain; on linkers, the order of the positions; unused ones are H or OH. Bridge positions count the residues as written; N and C are the ends. Side chains are listed from the residue outwards. Peptide text beside a SMILES is read from it. * marks the point of attachment. X1 = C/C(=N\O)C(C)(C)NCCC(CCNC(C)(C)/C(C)=N/O)CCN*; Glutaryl = O=C(CCCC(=O)[*:2])[*:1]; X2 = NC(=O)COCC(=O)NCCOCCOCCOCCN*

What was measured:
healthy volunteers [1] = test: Phase 1 safety assessment (adverse events, vital signs, ECG, laboratory parameters)
Procedure: In 2003, a phase 1, placebo-controlled, observer-blinded, randomised, single ascending-dose study was performed. The study aimed to assess the safety of three intravenous levels of maraciclatide and the biodistribution and radiation dosimetry of ^99mTc-maraciclatide in healthy volunteers, assessing the potential of ^99mTc-maraciclatide as a radiopharmaceutical for diagnostic imaging.
Safety data on vital signs (heart rate, blood pressure, temperature, and oxygen saturation), electrocardiograms (ECG), laboratory parameters and physical examinations (general appearance, lung, abdominal, cardiovascular, and neurological exam by a qualified clinician) were measured prior to administration, and at multiple time points up to 7 days following administration. Based on clinical assessment, new abnormal or worsening clinical findings were defined as a change from the participant’s normal baseline to abnormal. All abnormal changes were recorded as adverse events (AEs).
Safety assessments were performed by an observer blinded to the administration of the placebo and ^99mTc-maraciclatide. A thorough review of safety data was performed before the decision was made to escalate to the higher dose in participants.

clinical = test: clinical; design: species or system human; details: human, in vivo, iv
Procedure: (§1) To calculate ^99mTc-maraciclatide ex-vivo activity, blood, plasma, urine, and faeces were collected at various time points after administration. Blood and plasma samples were collected at 10 min, 30 min, 1 h, 2 h, 4 h, 8 h, 24 h, 48 h, 72 h, and 7 days post-administration. Concentrations of maraciclatide in plasma were assayed using the LC-MS method (LOQ was 0.5 ng/ml). Urine was also collected at the same time points (if possible) up to 24 h post-administration. Faecal samples were collected as voided for up to 24 h post-administration. Assayed samples for ^99mTc-maraciclatide content were then measured using a gamma counter.
(§2) Concentrations of maraciclatide in plasma were assayed using the LC-MS method (LOQ was 0.5 ng/ml). The mean apparent terminal elimination half-life was approximately 1 h. Overall, systemic clearance was approximately 6.7 ml/min/kg, whilst the mean apparent volume of distribution was approximately 520 ml/kg. The majority of ^99mTc activity was excreted through the urinary pathway and GI tract, 55% and 16%, respectively.

healthy volunteers [2] = test: clinical; design: species or system human; details: in vivo, iv
Procedure: as §1, §2

integrin receptor αvβ3 = details: background statement, no reference printed; cited from earlier work
healthy volunteers [3] = tested on: healthy volunteers; design: method as in PMID 17353156; details: human urine, highest dose group (150 micrograms maraciclatide), reversed-phase LC ion-trap MS; cited from earlier work

C/C(=N\O)C(C)(C)NCCC(CCNC(=O)CCCC(=O)NCCCC[C@@H]1NC(=O)CSC[C@@H](C(=O)NCCOCCOCCOCCNC(=O)COCC(N)=O)NC(=O)[C@H](Cc2ccccc2)NC(=O)[C@@H]2CSSC[C@H](NC1=O)C(=O)N[C@@H](CCCNC(=N)N)C(=O)NCC(=O)N[C@@H](CC(=O)O)C(=O)N2)CCNC(C)(C)/C(C)=N/O (stereo partly shown) [Maraciclatide] ({CH2CO}-K([Glutaryl-X1])CRGDCFC-X2; disulfide 2-6; thioether N-8; N-terminus and C-terminus assumed)
Abdominal pain: Cause of AE (healthy volunteers [1]; 15 μg maraciclatide (n = 8)): IMP
Blood phosphate decrease: No. with AEs (healthy volunteers [1]; 15 μg maraciclatide (n = 8)): 0
Cardiac disorder: No. of AEs (healthy volunteers [1]; 15 μg maraciclatide (n = 8)): 0
Cardiac disorder: No. with AEs (healthy volunteers [1]; 15 μg maraciclatide (n = 8)): 0
Contact dermatitis: Cause of AE (healthy volunteers [1]; 15 μg maraciclatide (n = 8)): Procedural complication
Contact dermatitis: No. of AEs (healthy volunteers [1]; 15 μg maraciclatide (n = 8)): 1
Contact dermatitis: No. with AEs (healthy volunteers [1]; 15 μg maraciclatide (n = 8)): 1
Crystal urine present: No. of AEs (healthy volunteers [1]; 15 μg maraciclatide (n = 8)): 0
Crystal urine present: No. with AEs (healthy volunteers [1]; 15 μg maraciclatide (n = 8)): 0
Diarrhoea: Cause of AE (healthy volunteers [1]; 15 μg maraciclatide (n = 8)): IMP
Diarrhoea: No. of AEs (healthy volunteers [1]; 15 μg maraciclatide (n = 8)): 1
Diarrhoea: No. with AEs (healthy volunteers [1]; 15 μg maraciclatide (n = 8)): 1
Dizziness: Cause of AE (healthy volunteers [1]; 15 μg maraciclatide (n = 8)): IMP
Dizziness: No. of AEs (healthy volunteers [1]; 15 μg maraciclatide (n = 8)): 1
Dizziness: No. with AEs (healthy volunteers [1]; 15 μg maraciclatide (n = 8)): 1
ECG PR shortened: No. of AEs (healthy volunteers [1]; 15 μg maraciclatide (n = 8)): 0
ECG PR shortened: No. with AEs (healthy volunteers [1]; 15 μg maraciclatide (n = 8)): 0
ECG QRS complex prolonged: No. of AEs (healthy volunteers [1]; 15 μg maraciclatide (n = 8)): 0
ECG QRS complex prolonged: No. with AEs (healthy volunteers [1]; 15 μg maraciclatide (n = 8)): 0
Herpes simplex virus: No. with AEs (healthy volunteers [1]; 15 μg maraciclatide (n = 8)): 0
Hyperkalaemia: No. of AEs (healthy volunteers [1]; 15 μg maraciclatide (n = 8)): 0
Hyperkalaemia: No. with AEs (healthy volunteers [1]; 15 μg maraciclatide (n = 8)): 0
Hypoaesthesia: Cause of AE (healthy volunteers [1]; 15 μg maraciclatide (n = 8)): IMP
Hypoaesthesia: No. of AEs (healthy volunteers [1]; 15 μg maraciclatide (n = 8)): 1
Hypoaesthesia: No. with AEs (healthy volunteers [1]; 15 μg maraciclatide (n = 8)): 1
Infection: No. of AEs (healthy volunteers [1]; 15 μg maraciclatide (n = 8)): 1
Infection: No. with AEs (healthy volunteers [1]; 15 μg maraciclatide (n = 8)): 1
Blood phosphate decrease: No. with AEs (healthy volunteers [1]; 75 μg maraciclatide (n = 8)): 1
Cardiac disorder: No. of AEs (healthy volunteers [1]; 75 μg maraciclatide (n = 8)): 1
Cardiac disorder: No. with AEs (healthy volunteers [1]; 75 μg maraciclatide (n = 8)): 1
Crystal urine present: No. of AEs (healthy volunteers [1]; 75 μg maraciclatide (n = 8)): 0
Crystal urine present: No. with AEs (healthy volunteers [1]; 75 μg maraciclatide (n = 8)): 0
Dizziness: No. of AEs (healthy volunteers [1]; 75 μg maraciclatide (n = 8)): 0
Dizziness: No. with AEs (healthy volunteers [1]; 75 μg maraciclatide (n = 8)): 0
ECG PR shortened: No. of AEs (healthy volunteers [1]; 75 μg maraciclatide (n = 8)): 0
ECG PR shortened: No. with AEs (healthy volunteers [1]; 75 μg maraciclatide (n = 8)): 0
ECG QRS complex prolonged: Cause of AE (healthy volunteers [1]; 75 μg maraciclatide (n = 8)): Unrelated medical condition
ECG QRS complex prolonged: No. of AEs (healthy volunteers [1]; 75 μg maraciclatide (n = 8)): 1
ECG QRS complex prolonged: No. with AEs (healthy volunteers [1]; 75 μg maraciclatide (n = 8)): 1
Herpes simplex virus: No. with AEs (healthy volunteers [1]; 75 μg maraciclatide (n = 8)): 0
Hyperkalaemia: No. of AEs (healthy volunteers [1]; 75 μg maraciclatide (n = 8)): 0
Hyperkalaemia: No. with AEs (healthy volunteers [1]; 75 μg maraciclatide (n = 8)): 0
Hypoaesthesia: No. of AEs (healthy volunteers [1]; 75 μg maraciclatide (n = 8)): 0
Hypoaesthesia: No. with AEs (healthy volunteers [1]; 75 μg maraciclatide (n = 8)): 0
Hyporeflexia: Cause of AE (healthy volunteers [1]; 75 μg maraciclatide (n = 8)): Other
Hyporeflexia: No. of AEs (healthy volunteers [1]; 75 μg maraciclatide (n = 8)): 1
Hyporeflexia: No. with AEs (healthy volunteers [1]; 75 μg maraciclatide (n = 8)): 1
Infection: No. of AEs (healthy volunteers [1]; 75 μg maraciclatide (n = 8)): 0
Infection: No. with AEs (healthy volunteers [1]; 75 μg maraciclatide (n = 8)): 0
Blood phosphate decrease: No. with AEs (healthy volunteers [1]; 150 μg maraciclatide (n = 8)): 0
Cardiac disorder: No. of AEs (healthy volunteers [1]; 150 μg maraciclatide (n = 8)): 0
Cardiac disorder: No. with AEs (healthy volunteers [1]; 150 μg maraciclatide (n = 8)): 0
Crystal urine present: Cause of AEs (healthy volunteers [1]; 150 μg maraciclatide (n = 8)): IMP
Crystal urine present: No. of AEs (healthy volunteers [1]; 150 μg maraciclatide (n = 8)): 1
Crystal urine present: No. with AEs (healthy volunteers [1]; 150 μg maraciclatide (n = 8)): 1
Diarrhoea: No. of AEs (healthy volunteers [1]; 150 μg maraciclatide (n = 8)): 0
Diarrhoea: No. with AEs (healthy volunteers [1]; 150 μg maraciclatide (n = 8)): 0
Dizziness: No. of AEs (healthy volunteers [1]; 150 μg maraciclatide (n = 8)): 0
Dizziness: No. with AEs (healthy volunteers [1]; 150 μg maraciclatide (n = 8)): 0
ECG PR shortened: No. of AEs (healthy volunteers [1]; 150 μg maraciclatide (n = 8)): 0
ECG PR shortened: No. with AEs (healthy volunteers [1]; 150 μg maraciclatide (n = 8)): 0
ECG QRS complex prolonged: No. of AEs (healthy volunteers [1]; 150 μg maraciclatide (n = 8)): 0
ECG QRS complex prolonged: No. with AEs (healthy volunteers [1]; 150 μg maraciclatide (n = 8)): 0
Herpes simplex virus: No. with AEs (healthy volunteers [1]; 150 μg maraciclatide (n = 8)): 1
Hyperkalaemia: Cause of AEs (healthy volunteers [1]; 150 μg maraciclatide (n = 8)): Procedural complication
Hyperkalaemia: No. of AEs (healthy volunteers [1]; 150 μg maraciclatide (n = 8)): 1
Hyperkalaemia: No. with AEs (healthy volunteers [1]; 150 μg maraciclatide (n = 8)): 1
Hypoaesthesia: No. of AEs (healthy volunteers [1]; 150 μg maraciclatide (n = 8)): 0
Hypoaesthesia: No. with AEs (healthy volunteers [1]; 150 μg maraciclatide (n = 8)): 0
Hyporeflexia: No. of AEs (healthy volunteers [1]; 150 μg maraciclatide (n = 8)): 0
Hyporeflexia: No. with AEs (healthy volunteers [1]; 150 μg maraciclatide (n = 8)): 0
Infection: No. of AEs (healthy volunteers [1]; 150 μg maraciclatide (n = 8)): 1
Infection: No. with AEs (healthy volunteers [1]; 150 μg maraciclatide (n = 8)): 1
AEs deemed related to maraciclatide (number) (healthy volunteers [1]; in vivo): 7
AEs deemed related to maraciclatide (percent) (healthy volunteers [1]; in vivo): 23%
Vd (clinical): ~0.52 L/kg
clearance (clinical): ~6.7 mL/min/kg
half-life (clinical): ~1 h
plasma concentration time course (healthy volunteers [2]): bi-exponential decline
affinity to αvβ3 (integrin receptor αvβ3): nanomolar affinity
metabolites in urine (healthy volunteers [3]): no metabolites were detected
species observed in urine samples (in-vivo stability) (healthy volunteers [3]): Only intact maraciclatide was observed
